# Measurements as given in publication PMC9482650, “Quantitative fragmentomics allow affinity mapping of interactomes” (Nature Communications, 2022).
# T1: APBA1_2, Q02410
# T1 sequence (Q02410 742-832, limits assumed, looked up): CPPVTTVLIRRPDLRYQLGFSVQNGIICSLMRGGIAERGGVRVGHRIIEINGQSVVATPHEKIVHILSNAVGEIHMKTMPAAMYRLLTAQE
# T2: APBA2_2, Q99767
# T2 sequence (Q99767 654-744, limits assumed, looked up): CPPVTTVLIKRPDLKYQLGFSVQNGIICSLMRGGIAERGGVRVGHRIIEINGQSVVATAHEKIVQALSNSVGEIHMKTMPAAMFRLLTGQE
# T3: ARHGAP21, Q5T5U3
# T3 sequence (Q5T5U3 45-169, limits assumed, looked up): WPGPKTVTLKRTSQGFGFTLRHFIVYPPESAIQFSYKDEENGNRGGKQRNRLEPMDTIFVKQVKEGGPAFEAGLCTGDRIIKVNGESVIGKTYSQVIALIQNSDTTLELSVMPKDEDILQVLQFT
# T4: LNX2_3, Q8N448
# T4 sequence (Q8N448 463-564, limits assumed, looked up): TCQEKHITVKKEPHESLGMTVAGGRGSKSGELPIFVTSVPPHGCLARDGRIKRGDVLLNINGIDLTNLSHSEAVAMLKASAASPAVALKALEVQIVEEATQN
# T5: MPP2, Q14168
# T5 sequence (Q14168 180-250, limits assumed, looked up): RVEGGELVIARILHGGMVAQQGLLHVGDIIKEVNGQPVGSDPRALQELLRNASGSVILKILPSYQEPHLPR
# T6: MPP7, Q5T2T1
# T6 sequence (Q5T2T1 134-230, limits assumed, looked up): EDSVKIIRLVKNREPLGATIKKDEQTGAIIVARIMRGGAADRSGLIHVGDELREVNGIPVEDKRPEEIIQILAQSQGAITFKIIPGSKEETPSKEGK
# T7: NHERF3_1, Q5T2W1
# T7 sequence (Q5T2W1 4-100, limits assumed, looked up): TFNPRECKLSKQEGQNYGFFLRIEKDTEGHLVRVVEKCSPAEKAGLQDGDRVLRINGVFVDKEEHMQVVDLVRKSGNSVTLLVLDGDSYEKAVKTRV
# T8: PCLO, Q9Y6V0
# T8 sequence (Q9Y6V0 4491-4600, limits assumed, looked up): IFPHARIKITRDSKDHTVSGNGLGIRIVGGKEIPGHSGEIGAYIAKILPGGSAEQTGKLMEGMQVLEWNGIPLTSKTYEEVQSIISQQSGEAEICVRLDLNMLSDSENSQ
# T9: PDZRN3_1, Q9UPQ7
# T9 sequence (Q9UPQ7 244-349, limits assumed, looked up): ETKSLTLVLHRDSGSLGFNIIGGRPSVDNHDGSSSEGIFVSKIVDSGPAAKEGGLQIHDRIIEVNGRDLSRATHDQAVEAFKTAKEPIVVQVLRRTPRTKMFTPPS
# T10: SNTG1, Q9NSN8
# T10 sequence (Q9NSN8 52-150, limits assumed, looked up): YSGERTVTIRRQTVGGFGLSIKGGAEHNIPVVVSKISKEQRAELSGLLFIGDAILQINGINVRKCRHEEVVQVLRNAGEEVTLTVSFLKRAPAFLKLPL
# Legend:
# Assay in all cases: holdup assay
# Design in all cases: key: below the threshold = too weak to quantify, mostly under pKd 3.1 to 4
# APBA1_2, Q02410 = molecular target: T1, APBA1_2, Q02410
# APBA2_2, Q99767 = molecular target: T2, APBA2_2, Q99767
# ARHGAP21, Q5T5U3 = molecular target: T3, ARHGAP21, Q5T5U3
# DLG1_1, Q12959 = molecular target: DLG1_1, Q12959
# DLG4_2, P78352 = molecular target: DLG4_2, P78352
# FRMPD4, Q14CM0 = molecular target: FRMPD4, Q14CM0
# GRID2IP_2, A4D2P6 = molecular target: GRID2IP_2, A4D2P6
# GRIP2_3, Q9C0E4 = molecular target: GRIP2_3, Q9C0E4
# GRIP2_4, Q9C0E4 = molecular target: GRIP2_4, Q9C0E4
# GRIP2_5, Q9C0E4 = molecular target: GRIP2_5, Q9C0E4
# GRIP2_6, Q9C0E4 = molecular target: GRIP2_6, Q9C0E4
# IL16_1, Q14005 = molecular target: IL16_1, Q14005
# IL16_3, Q14005 = molecular target: IL16_3, Q14005
# Inadl_10, Q8NI35 = molecular target: Inadl_10, Q8NI35
# LNX1_1, Q8TBB1 = molecular target: LNX1_1, Q8TBB1
# LNX1_3, Q8TBB1 = molecular target: LNX1_3, Q8TBB1
# LNX2_3, Q8N448 = molecular target: T4, LNX2_3, Q8N448
# MAGI2_4, Q86UL8 = molecular target: MAGI2_4, Q86UL8
# MAGI2_5, Q86UL8 = molecular target: MAGI2_5, Q86UL8
# MPP2, Q14168 = molecular target: T5, MPP2, Q14168
# MPP7, Q5T2T1 = molecular target: T6, MPP7, Q5T2T1
# NHERF3_1, Q5T2W1 = molecular target: T7, NHERF3_1, Q5T2W1
# PCLO, Q9Y6V0 = molecular target: T8, PCLO, Q9Y6V0
# PDZRN3_1, Q9UPQ7 = molecular target: T9, PDZRN3_1, Q9UPQ7
# PTPN3, P26045 = molecular target: PTPN3, P26045
# SCRIB_3, Q14160 = molecular target: SCRIB_3, Q14160
# SNTG1, Q9NSN8 = molecular target: T10, SNTG1, Q9NSN8
# TJP1_3, Q07157 = molecular target: TJP1_3, Q07157
# [1] = plain residues with an end cap or a label only (N-terminal biotin on a linker: ahx)
# [2] = plain residues with an end cap or a label only (N-terminal biotin on a linker: ado-ado)
# Sequence of DLG4_2, P78352 (P78352 155-259): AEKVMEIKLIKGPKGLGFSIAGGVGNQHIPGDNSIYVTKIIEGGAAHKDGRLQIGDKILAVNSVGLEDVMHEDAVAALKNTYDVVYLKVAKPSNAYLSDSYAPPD
# Sequence of FRMPD4, Q14CM0 (Q14CM0 67-160): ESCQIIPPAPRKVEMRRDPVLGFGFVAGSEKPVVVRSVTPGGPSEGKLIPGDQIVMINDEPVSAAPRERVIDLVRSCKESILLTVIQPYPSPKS
# Sequence of LNX1_1, Q8TBB1 (Q8TBB1 261-371): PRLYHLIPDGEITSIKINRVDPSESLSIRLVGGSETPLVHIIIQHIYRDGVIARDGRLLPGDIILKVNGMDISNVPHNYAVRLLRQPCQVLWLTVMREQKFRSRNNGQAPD
# Sequence of GRIP2_5, Q9C0E4 (Q9C0E4 544-642): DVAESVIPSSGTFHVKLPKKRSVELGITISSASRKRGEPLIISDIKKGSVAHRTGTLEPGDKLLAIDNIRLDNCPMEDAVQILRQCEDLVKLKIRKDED
# Sequence of PTPN3, P26045 (P26045 505-587): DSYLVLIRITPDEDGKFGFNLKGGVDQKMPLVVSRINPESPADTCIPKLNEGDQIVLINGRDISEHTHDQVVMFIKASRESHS
# Sequence of TJP1_3, Q07157 (Q07157 416-512): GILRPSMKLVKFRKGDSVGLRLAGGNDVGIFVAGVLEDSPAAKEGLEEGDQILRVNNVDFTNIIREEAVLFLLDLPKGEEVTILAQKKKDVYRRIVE
# Sequence of IL16_1, Q14005 (Q14005 210-306): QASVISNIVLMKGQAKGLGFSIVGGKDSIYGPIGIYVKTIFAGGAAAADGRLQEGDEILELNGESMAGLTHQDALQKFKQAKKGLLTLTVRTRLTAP
# Sequence of MAGI2_5, Q86UL8 (Q86UL8 915-1017): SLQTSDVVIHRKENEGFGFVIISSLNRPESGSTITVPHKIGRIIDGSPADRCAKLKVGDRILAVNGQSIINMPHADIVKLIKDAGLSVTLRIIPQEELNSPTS
# Sequence of GRID2IP_2, A4D2P6 (A4D2P6 272-370): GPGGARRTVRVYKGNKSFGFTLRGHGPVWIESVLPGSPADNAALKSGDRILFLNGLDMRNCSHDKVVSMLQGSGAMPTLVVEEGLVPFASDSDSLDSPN
# Sequence of Inadl_10, Q8NI35 (Q8NI35 1673-1763): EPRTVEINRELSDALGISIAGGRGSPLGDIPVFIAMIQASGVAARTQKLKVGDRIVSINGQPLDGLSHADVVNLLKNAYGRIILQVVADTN
# Sequence of LNX1_3, Q8TBB1 (Q8TBB1 500-596): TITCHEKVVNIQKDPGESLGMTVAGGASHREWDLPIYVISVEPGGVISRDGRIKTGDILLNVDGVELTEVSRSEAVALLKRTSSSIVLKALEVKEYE
# Sequence of IL16_3, Q14005 (Q14005 1107-1207): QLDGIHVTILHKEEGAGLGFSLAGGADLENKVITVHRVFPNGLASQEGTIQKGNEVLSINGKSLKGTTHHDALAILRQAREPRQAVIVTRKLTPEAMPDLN
# Sequence of GRIP2_4, Q9C0E4 (Q9C0E4 446-548): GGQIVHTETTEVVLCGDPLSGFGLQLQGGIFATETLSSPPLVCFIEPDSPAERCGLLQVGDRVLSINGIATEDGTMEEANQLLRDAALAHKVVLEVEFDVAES
# Sequence of SCRIB_3, Q14160 (Q14160 999-1103): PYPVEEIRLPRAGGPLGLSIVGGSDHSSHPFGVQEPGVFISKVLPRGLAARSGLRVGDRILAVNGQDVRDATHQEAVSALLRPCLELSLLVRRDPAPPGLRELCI
# Sequence of GRIP2_3, Q9C0E4 (Q9C0E4 238-339): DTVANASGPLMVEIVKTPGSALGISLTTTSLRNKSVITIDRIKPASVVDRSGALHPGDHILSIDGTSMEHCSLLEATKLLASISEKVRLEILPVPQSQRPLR
# Sequence of GRIP2_6, Q9C0E4 (Q9C0E4 648-740): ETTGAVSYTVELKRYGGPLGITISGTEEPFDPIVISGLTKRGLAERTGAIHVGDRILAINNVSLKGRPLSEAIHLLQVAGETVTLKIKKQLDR
# Sequence of MAGI2_4, Q86UL8 (Q86UL8 772-865): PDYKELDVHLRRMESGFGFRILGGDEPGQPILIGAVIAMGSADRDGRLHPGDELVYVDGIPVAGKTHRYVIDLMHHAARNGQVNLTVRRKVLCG
binder,measurement,setting,value
"EKQAKGDTEF [CACYBP, Q9HB71]",pKd,"APBA1_2, Q02410; [1]",below the threshold
same,pKd,"APBA2_2, Q99767; [1]",below the threshold
same,pKd,"ARHGAP21, Q5T5U3; [1]",below the threshold
same,pKd,"DLG1_1, Q12959; [1]",below the threshold
same,pKd,"DLG4_2, P78352; [1]",below the threshold
same,pKd,"FRMPD4, Q14CM0; [1]",3.55
same,pKd,"GRID2IP_2, A4D2P6; [1]",below the threshold
same,pKd,"GRIP2_3, Q9C0E4; [1]",below the threshold
same,pKd,"GRIP2_4, Q9C0E4; [1]",below the threshold
same,pKd,"GRIP2_5, Q9C0E4; [1]",below the threshold
same,pKd,"GRIP2_6, Q9C0E4; [1]",below the threshold
same,pKd,"IL16_1, Q14005; [1]",below the threshold
same,pKd,"IL16_3, Q14005; [1]",below the threshold
same,pKd,"Inadl_10, Q8NI35; [1]",below the threshold
same,pKd,"LNX1_1, Q8TBB1; [1]",below the threshold
same,pKd,"LNX1_3, Q8TBB1; [1]",below the threshold
same,pKd,"LNX2_3, Q8N448; [1]",below the threshold
same,pKd,"MAGI2_4, Q86UL8; [1]",below the threshold
same,pKd,"MAGI2_5, Q86UL8; [1]",below the threshold
same,pKd,"MPP2, Q14168; [1]",below the threshold
same,pKd,"MPP7, Q5T2T1; [1]",below the threshold
same,pKd,"NHERF3_1, Q5T2W1; [1]",below the threshold
same,pKd,"PCLO, Q9Y6V0; [1]",below the threshold
same,pKd,"PDZRN3_1, Q9UPQ7; [1]",below the threshold
same,pKd,"PTPN3, P26045; [1]",4.25
same,pKd,"SCRIB_3, Q14160; [1]",below the threshold
same,pKd,"SNTG1, Q9NSN8; [1]",below the threshold
same,pKd,"TJP1_3, Q07157; [1]",below the threshold
"RDPPAEWTRV [PTPN18, Q99952]",pKd,"APBA1_2, Q02410; [2]",4.25
same,pKd,"APBA2_2, Q99767; [2]",below the threshold
same,pKd,"ARHGAP21, Q5T5U3; [2]",3.95
same,pKd,"DLG1_1, Q12959; [2]",4.09
same,pKd,"DLG4_2, P78352; [2]",4.26
same,pKd,"FRMPD4, Q14CM0; [2]",4.07
same,pKd,"GRID2IP_2, A4D2P6; [2]",4.57
same,pKd,"GRIP2_3, Q9C0E4; [2]",below the threshold
same,pKd,"GRIP2_4, Q9C0E4; [2]",below the threshold
same,pKd,"GRIP2_5, Q9C0E4; [2]",below the threshold
same,pKd,"GRIP2_6, Q9C0E4; [2]",below the threshold
same,pKd,"IL16_1, Q14005; [2]",below the threshold
same,pKd,"IL16_3, Q14005; [2]",below the threshold
same,pKd,"Inadl_10, Q8NI35; [2]",3.61
same,pKd,"LNX1_1, Q8TBB1; [2]",3.73
same,pKd,"LNX1_3, Q8TBB1; [2]",3.68
same,pKd,"LNX2_3, Q8N448; [2]",below the threshold
same,pKd,"MAGI2_4, Q86UL8; [2]",3.48
same,pKd,"MAGI2_5, Q86UL8; [2]",4.72
same,pKd,"MPP2, Q14168; [2]",below the threshold
same,pKd,"MPP7, Q5T2T1; [2]",below the threshold
same,pKd,"NHERF3_1, Q5T2W1; [2]",4.33
same,pKd,"PCLO, Q9Y6V0; [2]",below the threshold
same,pKd,"PDZRN3_1, Q9UPQ7; [2]",3.55
same,pKd,"PTPN3, P26045; [2]",below the threshold
same,pKd,"SCRIB_3, Q14160; [2]",below the threshold
same,pKd,"SNTG1, Q9NSN8; [2]",below the threshold
same,pKd,"TJP1_3, Q07157; [2]",below the threshold
"VLYPREGTEV [FOXI1, Q12951]",pKd,"APBA1_2, Q02410; [2]",4.51
same,pKd,"APBA2_2, Q99767; [2]",below the threshold
same,pKd,"ARHGAP21, Q5T5U3; [2]",4
same,pKd,"DLG1_1, Q12959; [2]",4.4
same,pKd,"DLG4_2, P78352; [2]",4.62
same,pKd,"FRMPD4, Q14CM0; [2]",3.51
same,pKd,"GRID2IP_2, A4D2P6; [2]",4.11
same,pKd,"GRIP2_3, Q9C0E4; [2]",below the threshold
same,pKd,"GRIP2_4, Q9C0E4; [2]",below the threshold
same,pKd,"GRIP2_5, Q9C0E4; [2]",below the threshold
same,pKd,"GRIP2_6, Q9C0E4; [2]",below the threshold
same,pKd,"IL16_1, Q14005; [2]",4
same,pKd,"IL16_3, Q14005; [2]",below the threshold
same,pKd,"Inadl_10, Q8NI35; [2]",below the threshold
same,pKd,"LNX1_1, Q8TBB1; [2]",4.17
same,pKd,"LNX1_3, Q8TBB1; [2]",below the threshold
same,pKd,"LNX2_3, Q8N448; [2]",below the threshold
same,pKd,"MAGI2_4, Q86UL8; [2]",4.98
same,pKd,"MAGI2_5, Q86UL8; [2]",4.09
same,pKd,"MPP2, Q14168; [2]",below the threshold
same,pKd,"MPP7, Q5T2T1; [2]",below the threshold
same,pKd,"NHERF3_1, Q5T2W1; [2]",3.7
same,pKd,"PCLO, Q9Y6V0; [2]",below the threshold
same,pKd,"PDZRN3_1, Q9UPQ7; [2]",4.46
same,pKd,"PTPN3, P26045; [2]",4.76
same,pKd,"SCRIB_3, Q14160; [2]",4.36
same,pKd,"SNTG1, Q9NSN8; [2]",4.13
same,pKd,"TJP1_3, Q07157; [2]",below the threshold
"MHIQEKGFHV [EPHA6, Q9UF33]",pKd,"APBA1_2, Q02410; [2]",below the threshold
same,pKd,"APBA2_2, Q99767; [2]",below the threshold
same,pKd,"ARHGAP21, Q5T5U3; [2]",below the threshold
same,pKd,"DLG1_1, Q12959; [2]",below the threshold
same,pKd,"DLG4_2, P78352; [2]",below the threshold
same,pKd,"FRMPD4, Q14CM0; [2]",3.77
same,pKd,"GRID2IP_2, A4D2P6; [2]",below the threshold
same,pKd,"GRIP2_3, Q9C0E4; [2]",below the threshold
same,pKd,"GRIP2_4, Q9C0E4; [2]",below the threshold
same,pKd,"GRIP2_5, Q9C0E4; [2]",below the threshold
same,pKd,"GRIP2_6, Q9C0E4; [2]",3.59
same,pKd,"IL16_1, Q14005; [2]",below the threshold
same,pKd,"IL16_3, Q14005; [2]",below the threshold
same,pKd,"Inadl_10, Q8NI35; [2]",below the threshold
same,pKd,"LNX1_1, Q8TBB1; [2]",below the threshold
same,pKd,"LNX1_3, Q8TBB1; [2]",below the threshold
same,pKd,"LNX2_3, Q8N448; [2]",below the threshold
same,pKd,"MAGI2_4, Q86UL8; [2]",below the threshold
same,pKd,"MAGI2_5, Q86UL8; [2]",below the threshold
same,pKd,"MPP2, Q14168; [2]",below the threshold
same,pKd,"MPP7, Q5T2T1; [2]",below the threshold
same,pKd,"NHERF3_1, Q5T2W1; [2]",3.71
same,pKd,"PCLO, Q9Y6V0; [2]",below the threshold
same,pKd,"PDZRN3_1, Q9UPQ7; [2]",below the threshold
same,pKd,"PTPN3, P26045; [2]",below the threshold
same,pKd,"SCRIB_3, Q14160; [2]",below the threshold
same,pKd,"SNTG1, Q9NSN8; [2]",below the threshold
same,pKd,"TJP1_3, Q07157; [2]",below the threshold
